First the molecules themselves.
B1: DNMT1 RFTS domain (aa: 351–600) (domain or fragment)
chain: PKCIQCGQYLDDPDLKYGQHPPDAVDEPQMLTNEKLSIFDANESGFESYEALPQHKLTCFSVYCKHGHLCPIDTGLIEKNIELFFSGSAKPIYDDDPSLEGGVNGKNLGPINEWWITGFDGGEKALIGFSTSFAEYILMDPSPEYAPIFGLMQEKIYISKIVVEFLQSNSDSTYEDLINKIETTVPPSGLNLNRFTEDSLLRHAQFVVEQVESYDEAGDSDEQPIFLTPCMRDLIKLAGVTLGQRRAQAR
B2: UHRF1 UBL domain (aa: 1–76) (domain or fragment)
chain: MWIQVRTMDGRQTHTVDSLSRLTKVEELRRKIQELFHVEPGLQRLFYRGKQMEDGHTLFDYEVRLNDTIQLLVRQS
B3: DNMT1 RFTS domain E397A (domain or fragment)
chain: B1 chain with E47A
B4: DNMT1 RFTS domain E384A (domain or fragment)
chain: B1 chain with E34A
B5: DNMT1_351 (aa: 351–1616) (domain or fragment)
chain: PKCIQCGQYLDDPDLKYGQHPPDAVDEPQMLTNEKLSIFDANESGFESYEALPQHKLTCFSVYCKHGHLCPIDTGLIEKNIELFFSGSAKPIYDDDPSLEGGVNGKNLGPINEWWITGFDGGEKALIGFSTSFAEYILMDPSPEYAPIFGLMQEKIYISKIVVEFLQSNSDSTYEDLINKIETTVPPSGLNLNRFTEDSLLRHAQFVVEQVESYDEAGDSDEQPIFLTPCMRDLIKLAGVTLGQRRAQARRQTIRHSTREKDRGPTKATTTKLVYQIFDTFFAEQIEKDDREDKENAFKRRRCGVCEVCQQPECGKCKACKDMVKFGGSGRSKQACQERRCPNMAMKEADDDEEVDDNIPEMPSPKKMHQGKKKKQNKNRISWVGEAVKTDGKKSYYKKVCIDAETLEVGDCVSVIPDDSSKPLYLARVTALWEDSSNGQMFHAHWFCAGTDTVLGATSDPLELFLVDECEDMQLSYIHSKVKVIYKAPSENWAMEGGMDPESLLEGDDGKTYFYQLWYDQDYARFESPPKTQPTEDNKFKFCVSCARLAEMRQKEIPRVLEQLEDLDSRVLYYSATKNGILYRVGDGVYLPPEAFTFNIKLSSPVKRPRKEPVDEDLYPEHYRKYSDYIKGSNLDAPEPYRIGRIKEIFCPKKSNGRPNETDIKIRVNKFYRPENTHKSTPASYHADINLLYWSDEEAVVDFKAVQGRCTVEYGEDLPECVQVYSMGGPNRFYFLEAYNAKSKSFEDPPNHARSPGNKGKGKGKGKGKPKSQACEPSEPEIEIKLPKLRTLDVFSGCGGLSEGFHQAGISDTLWAIEMWDPAAQAFRLNNPGSTVFTEDCNILLKLVMAGETTNSRGQRLPQKGDVEMLCGGPPCQGFSGMNRFNSRTYSKFKNSLVVSFLSYCDYYRPRFFLLENVRNFVSFKRSMVLKLTLRCLVRMGYQCTFGVLQAGQYGVAQTRRRAIILAAAPGEKLPLFPEPLHVFAPRACQLSVVVDDKKFVSNITRLSSGPFRTITVRDTMSDLPEVRNGASALEISYNGEPQSWFQRQLRGAQYQPILRDHICKDMSALVAARMRHIPLAPGSDWRDLPNIEVRLSDGTMARKLRYTHHDRKNGRSSSGALRGVCSCVEAGKACDPAARQFNTLIPWCLPHTGNRHNHWAGLYGRLEWDGFFSTTVTNPEPMGKQGRVLHPEQHRVVSVRECARSQGFPDTYRLFGNILDKHRQVGNAVPPPLAKAIGLEIKLCMLAKARESASAKIKEEEAAKD

The target of assay [1] is T1, ubiquitin (UniProt P0CG48 1-76). Description: ITC. Background: ITC needs no label: the signal is the heat of the interaction.
The next assay addresses DNMT1 RFTS domain Y399G (human, UniProt P26358 351-600, Y399G). Briefly: ITC.
For assay [2], the target named is DNMT1 RFTS domain E384A/E397A (human, UniProt P26358 351-600, E384A | E397A). Description: ITC.
For a further assay, the target named is DNMT1 RFTS domain I442G (human, UniProt P26358 351-600, I442G). Description: ITC.
The target in assay [3] is B1. Description: ITC.
The assay “DNMT1 RFTS domain E384A” has as its target B4. Briefly: ITC.
The target in the assay “DNMT1 RFTS domain E397A” is B3. Description: ITC.
In assay [4] the target is T1, ubiquitin. Briefly: NMR titration.

Where a chain is given by its changes, count along the chain named. Names and notes keep the numbering of the source.

As usually defined, the Kd is the equilibrium constant for the complex coming apart. Higher therefore signals a looser complex.

In the assay with ubiquitin [1], B1 returned a Kd of 26 µM.
For the molecule B2, the binding result (with DNMT1 RFTS domain Y399G; in assay [2]; with DNMT1 RFTS domain I442G; with DNMT1 RFTS domain E384A; in the assay with DNMT1 RFTS domain E397A) was “binds” throughout. For the same molecule, in assay [3], the dissociation constant (Kd) came to 41.3 µM.
For the molecule B3, the “fold reduction of binding against wild-type RFTS” value in the assay with ubiquitin [1] was about 2 fold.
With B4, the “fold reduction of binding against wild-type RFTS” value with ubiquitin [1] is about 2 fold.
On to B5, for which, in the assay with ubiquitin [4], the binding result was “binds”.
